Measurements: patent US20160009800A1 (XOMA US, published 2016)

What was measured:
human insulin receptor [1] = target: T1, human insulin receptor (human, UniProt P06213 28-1382); test: KinExA antibody depletion by hINSR8-CHOK1 cells, without insulin
T1 construct: whole, on cells; Uncomplexed receptor on serum-starved cells (CHOK1 transfectants or IM-9); also called hINSR; INSR
Procedure: (§1) Beads were rotated at room temperature for 6 hours then allowed to settle. Supernatant was replaced with PBS with 50 mg/mL BSA Fraction V (Sigma-Aldrich, St. Louis, Mo.) and rotated overnight at 4° C. […] On the KinExA 3000 the sample was injected at 0.25 mL/minute for 240 seconds, then rinsed for 60 seconds in running buffer (PBS with 0.05% sodium azide), then 240 seconds of the detection solution was injected, followed by a final 90 second wash at 1 mL/minute. The difference in voltage from an early initial time-point and a time point near the end of the run was measured and used to calculate affinities. The INSR concentration on the cells was estimated at 2.5×10⁵ receptors/cell. Affinity was determined using the KinExA software (Sāpidyne, Boise Id.) and EC50's were calculated by non-linear fit in Prism (GraphPad Software, La Jolla Calif.).
(§2) Samples were incubated overnight at 4° C. for 18 hours then centrifuged to pellet cells and supernatants were removed for testing on the KinExA. […] Detection solution used was R-PE-(Fab′)2 fragment goat anti-Human IgG(H+L) (Jackson Immuno Research, West Grove Pa.).

[2] = target: T2, mouse insulin receptor complexed with human insulin (mouse; human, UniProt P15208 28-1372; P01308 25-54; P01308 90-110); test: FACS, CHO-K1 mouse INSR cells, signal with insulin divided by signal without insulin [cont'd]
T2 construct: whole, on cells;mature; also called muINSR/hINS complex
Procedure: (§3) Twenty five microliter aliquots of cells were plated into 96 well plates, mixed with 25 ul of antibody or PPE and incubated on ice for 1 h.
(§4) The cells were then washed once with FACS buffer and the binding of the antibody was detected by the addition of 25 ul of an appropriate fluorochrome-conjugated secondary antibody. […] After a final 15 min incubation on ice the cells were washed and the pellets resuspended in FACS buffer. The cells were analyzed on a FACSCAN™ (Becton-Dickinson, Milipitas, Calif.) and the data analyzed in both FLOWJO™ (Treestar, Ashland, Oreg.) and Microsoft Excel™.

[3] = target: T2, mouse insulin receptor complexed with …; test: FACS, serum-starved CHO-K1 cells expressing mouse INSR, with insulin [cont'd]
Procedure: as §3, §4

[4] = target: T3, human insulin receptor complexed with human insulin (human, UniProt P06213 28-1382; P01308 25-54; P01308 90-110); test: FACS, serum-starved CHO-K1 cells expressing human INSR, with insulin [cont'd]
T3 construct: whole, on cells;mature; also called hINSR-hINS complex; INS/INSR complex
Procedure: as §3, §4

[5] = target: T3, human insulin receptor complexed with …; test: FACS, CHO-K1 human INSR cells, signal with insulin divided by signal without insulin [cont'd]
Procedure: as §3, §4

[6] = target: T3, human insulin receptor complexed with …; test: KinExA antibody depletion by hINSR8-CHOK1 cells, with 175 nM insulin
Procedure: as §1, §2

mouse insulin receptor [7] = target: T4, mouse insulin receptor (mouse, UniProt P15208 28-1372); test: FACS, serum-starved CHO-K1 cells expressing mouse INSR, no insulin [cont'd]
T4 construct: whole, on cells; also called muINSR; mINSR
Procedure: as §3, §4

human insulin receptor [8] = target: T1, human insulin receptor; test: FACS, serum-starved CHO-K1 cells expressing human INSR, no insulin [cont'd]
Procedure: as §3, §4

human insulin receptor [9] = target: T1, human insulin receptor; test: cell-based or functional assay
[10] = target: T3, human insulin receptor complexed with …; test: KinExA, affinity with insulin against affinity without insulin
Procedure: as §1, §2

human insulin receptor [11] = target: T1, human insulin receptor; test: cell-based or functional assay; remark: listed apart in the source
mouse insulin receptor [12] = target: T4, mouse insulin receptor; test: cell-based or functional assay
human insulin receptor [13] = target: T1, human insulin receptor; test: cell-based or functional assay; remark: listed apart in the source
mouse insulin receptor [14] = target: T4, mouse insulin receptor; test: cell-based or functional assay; remark: listed apart in the source
mouse insulin receptor [15] = target: T4, mouse insulin receptor; test: FACS on mouse INSR; conditions not given on the sheet [cont'd]
[16] = target: T3, human insulin receptor complexed with …; test: FACS, CHO-K1 human INSR cells, signal with insulin divided by signal without insulin
Procedure: as §3, §4

[17] = target: T3, human insulin receptor complexed with …; test: FACS, serum-starved CHO-K1 cells expressing human INSR, with insulin
Procedure: as §3, §4

[18] = target: T2, mouse insulin receptor complexed with …; test: FACS, CHO-K1 mouse INSR cells, signal with insulin divided by signal without insulin
Procedure: as §3, §4

[19] = target: T2, mouse insulin receptor complexed with …; test: FACS, serum-starved CHO-K1 cells expressing mouse INSR, with insulin
Procedure: as §3, §4

mouse insulin receptor [20] = target: T4, mouse insulin receptor; test: FACS, serum-starved CHO-K1 cells expressing mouse INSR, no insulin
human insulin receptor [21] = target: T1, human insulin receptor; test: FACS, serum-starved CHO-K1 cells expressing human INSR, no insulin
Procedure: as §3, §4

Kd (human insulin receptor [1]) [nM]	FACS area under log transformed data MFI ratio (+insulin/-insulin) [2]	FACS area under log transformed data MFI [3]	FACS area under log transformed data MFI [4]	FACS area under log transformed data MFI ratio (+insulin/-insulin) [5]	Kd [6] [nM]	FACS area under log transformed data MFI (mouse insulin receptor [7])	FACS area under log transformed data MFI (human insulin receptor [8])	pAKT assay, fold-decrease in insulin EC50 relative to isotype control Ab (human insulin receptor [9]) [fold]	Fold Improvement with Insulin [10] [fold]	binding result (mouse insulin receptor [15])	Binder	other results
12	1.22	191	386	1.37	0.68	157	282	8.4	17.6	–	Ab080 (antibody, IgG2, V domains shown, also called XPA.015.246) VH: EVQLVESGGGVVQPGGSLRLSCAASGFTFDDYAMHWVRQAPGKGLEWVSLISWDGGSTYYADSVKGRFTISRDNSKNSLYLQMNSLRAEDTALYYCAKARGVVIIDYWGQGTLVTVSS VL: EIVLTQSPGTLSLSPGERATLSCRASQSLSSSFLAWYQQKPGQAPRLLIYGAGSRATGVPDRFSGSGYGTDFSLTISRLELEDFAVYYCQQYDRSQITFGQGTRLEIK	–
9.6	1.39	215	385	1.3	0.496	154	296	6.7	19.4	–	Ab079 (antibody, IgG2, V domains shown, also called XPA.015.245) VH: QMQLVQSGAEMKKPGASVKVSCKASGYSFSDYGITWVRQAPGQGPEWMGWISGYNGNTNYAQKFQDRVTMTTDTSTSTAYMELRSLKSDDTAVYFCARARGVWMFDNWGQGTLVTVSS VL: AIRMTQSPSTLSASVGDRVTITCRASQSISTWLAWYQQKPGKAPKLLIYTTSTLESGVPSRFSGSRSGTEFTLTISSLQPDDFATYYCQQYNSYPLTFGGGTKVEIK	fold-change in insulin EC50 (pAkt) relative to isotype control, 10 ug/ml Ab079, human INSR CHO-K1 cells (human insulin receptor [11]): 7 fold; fold-change in insulin EC50 (pAkt) relative to isotype control, 20 ug/ml Ab079, mouse INSR CHO-K1 cells (mouse insulin receptor [12]): 8 fold
0.108	–	–	–	–	0.08	–	–	–	1.4	–	Ab037 (antibody, V domains shown, Partial allosteric agonist; also called XPA.015.048) VH: EVQLLESGGGLVQPGGSLRLSCAASGFTFSSYEMNWVRQAPGKGLEWVSSISSSSRYADVANSVVGRFTISRDNSKNTLYLQMNSLRAEDTAVYYCARGEWLDHFDYWGQGTLVTVSS VL: QSVLTQPPSASGTPGQRVTISCSGSSSNIGNSAVNWYQQLPGTAPKLLIYDNNKRPSGVPDRFSGSKSGTSASLAISGLRSEDEADYYCQVWDSGTAVFGGGTKLTVLG	EC50 of pAkt activation without insulin, human INSR CHO-K1 cells (human insulin receptor [13]): 0.65 nM; relative maximum pAkt activation without insulin, human INSR CHO-K1 cells (human insulin receptor [13]): 79%; EC50 of pAkt activation without insulin, mouse INSR CHO-K1 cells (mouse insulin receptor [14]): 1.42 nM; relative maximum pAkt activation without insulin, mouse INSR CHO-K1 cells (mouse insulin receptor [14]): 42%
–	–	–	–	–	–	–	–	–	–	no binding	Ab047 (antibody, V domains shown, also called XPA.015.121) VH: EVQLLESGGGLVQPGGSLRLSCAASGFTFSSYAMSWVRQAPGKGLEWVSSISGGSTYYADSRKGRFTISRDNSKNTLYLQMNSLRAEDTAVYYCARHADQWPGSWFDPWGQGTLVTVSS VL: QSVLTQPPSASGTPGQRVTISCSGSSSNIGSNTVNWYQQLPGTAPKLLIYDNNKRPSGVPDRFSGSKSGTSASLAISGLRSEDEADYYCQSYDSSLSGWEVFGGGTKLTVLG	–
0.148	–	–	–	–	0.096	–	–	–	1.5	–	Ab053 (antibody, V domains shown, also called XPA.015.196) VH: not shown VL: QSALTQPRSVSESPGKTVTISCTGSGGSIGSNYVQWYQQRPGSAPTTVIFEDNRRPSGVPDRFSGSIHSSSNSASLTISGLKTEDEADYYCQSYVGTIVVFGGGTKVTVL	FACS area under log transformed data MFI ratio (+insulin/-insulin) [16]: 0.34; FACS area under log transformed data MFI [17]: 451; EC50 of pAkt activation without insulin, human INSR CHO-K1 cells (human insulin receptor [13]): 0.42 nM; relative maximum pAkt activation without insulin, human INSR CHO-K1 cells (human insulin receptor [13]): 64%; EC50 of pAkt activation without insulin, mouse INSR CHO-K1 cells (mouse insulin receptor [14]): 0.69 nM; relative maximum pAkt activation without insulin, mouse INSR CHO-K1 cells (mouse insulin receptor [14]): 48%; FACS area under log transformed data MFI ratio (+insulin/-insulin) [18]: 0.51; FACS area under log transformed data MFI [19]: 574; FACS area under log transformed data MFI (mouse insulin receptor [20]): 1130; FACS area under log transformed data MFI (human insulin receptor [21]): 1330
–	–	–	–	–	–	–	–	–	–	no binding	Ab049 (antibody, V domains shown, also called XPA.015.165) VH: EVQLLESGGGLVQPGGSLRLSCAASGFTFSSNYMSWVRQAPGKGLEWVSSISGGSTYYADSRKGRFTISRDNSKNTLYLQMNSLRAEDTAVYYCARLDWSSGAFDIWGQGTLVTVSS VL: QSVLTQPPSASGTPGQRVTISCSGRSSNIGYNYVSWYQQLPGTAPKLLIYGNSNRPSGVPDRFSGSKSGTSASLAISGLRSEDEADYYCAAWDDSLSGPVFGGGTKLTVLG	–
–	1.75	344	508	0.95	–	196	532	–	–	–	Ab084 (antibody, IgG2, V domains shown, also called XPA.015.250) VH: QVQLVESGGGLVQPGGSLRLSCAASGFTFKNYWMTWVRQAPGKGLEWVADIKGDGSRQHYADSVKGRFTISRDNARNSLFLQMNSLRVEDTALYYCATDPPWDRDAFDLWGQGTMVTVSS VL: AIRMTQSPSTLSASVGDRVTITCRASQSISSWLAWYQQTPGKAPKLLIYAASNLQSGVPSRFSGSGSGTDFTLTISSLQPEDFATYYCQQSYNTPLTFGGGTKVEIK	–
–	–	–	–	–	–	–	–	–	–	binds	Ab045 (antibody, V domains shown, also called XPA.015.111) VH: EVQLLESGGGLVQPGGSLRLSCAASGFTFSSYWMSWVRQAPGKGLEWVSGISGSGGSTDYADSVKGRFTISRDNSKNTLYLQMNSLRAEDTAVYYCARELPAFWSAFDYWGQGTLVTVSF VL: not shown	–
7.6	–	179	294	–	0.376	81	–	–	–	–	Ab083 (antibody, IgG2, V domains shown, also called XPA.015.249) VH: not shown VL: AIQLTQSPSSLSASVGDRVTISCRASQSITSYLNWYQQKPGKAPNLLIYAASSLQSGVPSRFSGSGSGTDFTLTIAGLQPEDFATYYCQQFDSYPFTFGGGTKLEIK	–
–	–	–	–	–	0.2	–	–	8.9	–	–	Ab085 (antibody, IgG2, V domains shown, also called XPA.015.275) VH: EVQLVESGGGVVQPGRSLRLSCAASGFIFSSYGMHWVRQVPDKGLEWVAGISLRGSDNYYADSVKGRFTISRDNSKNTLYLQMNNLRPDDTAVYYCARGFRWPVTPFDHWGQGTLVTVSS VL: QTVVTQEPSFSVSPGGTVTLTCGLTSGSVSTRNFPGWYQQTPGQTLRTLIYNTNTRSSGVPDRFSGSILGNKAALTITGAQADDESDYYCVLYMTGDIWVFGGGTKVTVLG	fold-change in insulin EC50 (pAkt) relative to isotype control, 1 ug/ml Ab085, human INSR CHO-K1 cells (human insulin receptor [11]): 3 fold; fold-change in insulin EC50 (pAkt) relative to isotype control, 10 ug/ml Ab085, human INSR CHO-K1 cells (human insulin receptor [11]): 9 fold; fold-change in insulin EC50 (pAkt) relative to isotype control, 20 ug/ml Ab085, mouse INSR CHO-K1 cells (mouse insulin receptor [12]): 8 fold
